# Experimental data: the RNAGym collection of RNA variant scans (doi:10.7554/elife.80360)
# B1: Hammerhead Ribozyme (parent)
# chain: ACCGGAUGUGCUUUCCGGUCUGAUGAGUCCGUGAGGACGAAACAG
# Variants of: B1
# Assay: self-cleavage, relative activity (ratio to wild type); higher = more cleavage; co-transcriptional
row,Variant,self-cleavage
1,G36A A42C,0.287
2,A23G U32C,0.375
3,U14C G22A,0.32
4,A6C U14C,0.495
5,C3A G27C,0.422
6,U7G C20A,0.359
7,G18U A44G,0.942
8,A1U G17U,0.357
9,C3A G5U,0.28
10,G31A A41C,0.407
11,U14A A44G,1.06
12,U13A G27U,0.53
13,U19A A26G,0.313
14,C15U A37C,0.714
15,C2A U13G,0.86
16,C2A C29A,0.376
17,C11G G17C,0.273
18,G8A A26G,0.371
19,C29G A40G,0.238
20,C11A U19A,0.358
21,C15A G45U,0.467
22,A34G A41C,0.302
23,C30G,0.867
24,C3U U13G,0.866

row,Variant,self-cleavage
1,G18U G39U,0.392
2,C15U C43G,0.305
3,C15G G39U,0.301
4,C30A A44C,0.317
5,U28C C38A,0.789
6,G33U A34G,0.752
7,A37U A44G,0.801
8,U12A A34U,1
9,G4A U14C,0.404
10,G10U C16G,1.01
11,U13C A26U,0.622
12,C3U G35A,0.487
13,C15U A41C,0.368
14,G4U A34U,0.43
15,G8A G22C,0.273
16,C11G G45C,0.962
17,A1C C38U,0.495
18,G5C U13G,0.85
19,C15G A40G,0.42
20,G10C G39A,0.368
21,C2A G33A,0.958
22,C3G A40C,0.284
23,U12C G33A,1.25
24,U21C C30G,0.403

row,Variant,self-cleavage
1,A37C A44C,0.28
2,G5U A40C,0.375
3,G18C A44C,0.435
4,G35U,0.817
5,A26U A42G,0.303
6,A1G U32A,1.68
7,G5U U14C,0.837
8,C2A A34U,0.402
9,C3G G33A,0.577
10,A1G C3G,0.586
11,C2G C29A,0.311
12,A1G G31C,1.64
13,A1C A41C,0.372
14,G27A C43A,0.347
15,C2U A37U,0.849
16,C2U G17U,0.409
17,U13A U14G,1.16
18,G22C G35C,0.336
19,U7A G22C,0.309
20,U12C C43A,0.278
21,U28C C29A,0.688
22,C16A G18C,0.341
23,C20U G33A,0.867
24,A6U C15G,0.527

row,Variant,self-cleavage
1,A6C G25U,0.219
2,U24G G39U,0.303
3,C29G G39A,0.324
4,C16U C29G,0.69
5,G10U G17U,0.848
6,C16A U19C,0.39
7,G22A U32G,0.264
8,U19C G27C,0.308
9,A23U U24A,0.58
10,U9C C20U,0.504
11,C38G G39A,0.285
12,A6G C20G,0.236
13,U14C C20A,0.337
14,U13A G17C,0.815
15,C15G C20U,0.453
16,G35C C38A,0.398
17,A1C G27C,0.357
18,G25A U28G,0.313
19,U21G A37U,0.417
20,C2U G5A,0.633
21,U7G G25A,0.272
22,U13C G22A,0.243
23,G5U A42G,0.352
24,A23C G27C,0.328

row,Variant,self-cleavage
1,C20U A44G,0.962
2,C15U,0.912
3,G8C A44C,0.608
4,G18U G27A,0.567
5,C11G G25C,0.326
6,U14G C30A,0.924
7,G8C U19G,0.428
8,A26U G45C,0.362
9,A34U A37C,0.572
10,U14C C29U,0.709
11,G27A C38G,0.623
12,C15U U28C,0.803
13,G8C U9C,1.05
14,G8A U19G,0.448
15,C11G U12A,1.1
16,U21G A23G,0.387
17,C30A A37G,0.586
18,U9C G22A,0.34
19,G27C C43G,0.26
20,U21G G36U,0.333
21,U12C U14G,0.902
22,C2G G31U,0.503
23,A6G U21C,0.54
24,C38U A40G,0.37

row,Variant,self-cleavage
1,A1U A37C,0.556
2,U9A C29G,0.602
3,G8U C11U,1.37
4,C11A U21A,0.895
5,C16U A41G,0.376
6,C29G C30G,0.476
7,G17A U24A,0.704
8,C11A G45U,1.05
9,G4A A37U,0.378
10,A1C U28G,0.302
11,C15U U19G,0.327
12,U12G U21G,0.334
13,C15A C29A,0.457
14,U9A,1.02
15,U19A A41C,0.391
16,C15A A37G,0.895
17,G39C A44U,0.415
18,C20A G39A,0.347
19,C43A G45C,0.441
20,U21A G36C,0.283
21,G8A G25A,0.405
22,A26U C43A,0.33
23,G18U A34C,0.407
24,G25U A42C,0.29

row,Variant,self-cleavage
1,G5C C38G,0.278
2,G27C G36U,0.371
3,A23U U32A,0.376
4,C3G C11G,0.647
5,U12A G35A,0.724
6,C3A G35U,0.369
7,G4C C11A,0.67
8,G5U U12C,0.804
9,A1U,0.853
10,G5C G45U,0.382
11,C29G G35C,0.602
12,U13G U21C,0.579
13,C2U G4U,0.335
14,G4U U21G,0.325
15,G5C G27C,0.354
16,C16U C43G,0.352
17,A1C U9A,0.399
18,G36C G45U,0.367
19,C3U C38U,0.999
20,G17C A44C,0.418
21,A23U A26G,0.304
22,C16G G45C,0.397
23,G5A C29U,0.95
